The values that follow come from patent EP4790144A1 (Peking Union Medical College Hospital, dated 2026).

This assay addresses T1, 2023-601 project-ABCD1 protein (human, UniProt P33897 650-745).
T1 construct: also called antigen protein ABCD1
T1 sequence: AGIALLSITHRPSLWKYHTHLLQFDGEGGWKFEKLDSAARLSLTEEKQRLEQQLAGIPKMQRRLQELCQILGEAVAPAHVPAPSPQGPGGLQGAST
Briefly: ELISA, ABCD1 protein coated at 2 ug/mL, HRP goat anti-mouse secondary antibody. On the technique in general: In an ELISA, binding on a coated surface is turned into a signal by an enzyme label.

B1: 07PC09 (antibody, V domains shown)
VH: IVMLVESGGGLVKPGGSLKLSCVASGFTFSTYAMSWIRQTPEKRLAWVATISSGGSSTYYSDSVKGRFTISRDNAKNTLYLQMSSLRSEDTAMYYCARHGDWDGSLAYWGQGTQVTVSA
VL: DIVMTQSHKLMSTSVGDRVNITCKASQDVNAAVAWYQQQPGQSPKLLFYWASTRHTGVPDRFTGSGSRTDYTLTISGVQAEDLALYYCQQHYSAPRTFGGGTKLEVK
B1: the binding result was “binds”.

B2: 07TE02 (antibody, V domains shown)
VH: DVKLVESGGGLVKPGGSLKLSCAASGLTFSIYAMSWVRQTPEKRLEWVATISAGDIYPYYSDSVKGRFAISRDNAKNTLYLQMSSLRSEDTAIYYCTSITMAMAYWGQGTLVTVSA
VL: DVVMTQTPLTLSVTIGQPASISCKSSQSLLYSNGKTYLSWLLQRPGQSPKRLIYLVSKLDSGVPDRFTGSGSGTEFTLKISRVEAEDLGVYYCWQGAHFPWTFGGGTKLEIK
Turning to B2, the binding result is recorded as “binds”.

B3: 07TE08 (antibody, V domains shown)
VH: DVKLVESGGGLVKPGGSLKLSCAASGFTFSIYAMSWVRQTPEKRLEWVATISAGDIYPYYSDSVKGRFAISRDNAKNTLFLQMSSLRSEDTAIYYCTSITMAMAYWGQGTLVTVSA
VL: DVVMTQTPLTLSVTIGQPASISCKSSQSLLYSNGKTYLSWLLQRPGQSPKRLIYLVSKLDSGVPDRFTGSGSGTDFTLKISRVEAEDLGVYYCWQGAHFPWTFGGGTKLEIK
Turning to B3, the binding result is reported as “binds”.

B4: 07PC08 (antibody, V domains shown)
VH: EVKLEESGGGLVQPGGSMKLSCGASGFTFSDAWMDWVRQSPEKGLEWVAEIRSKAINHATYYAESVKGRFTISRDDSKSSVYLQMNSLRAEDTGIYYCTRRVDWYFDVWGAGTTVTVSS
VL: DILLTQSPAILSVSPGERVSFSCRASQSIGTSIYWYQQRTNGSPRLLIKYASESISGIPSRFSGSGSGTDFTLSINSVESEDIADYYCQQSNSWPLTFGAGTKLELK
Take B4: the binding result is on record as “binds”.

B5: 07PC17 (antibody, V domains shown)
VH: QLQLVQSGPEVKKPGETVKISCKASGYAFTNYGMNWVKQAPGKDLKWMGWINTYTGDPVYGDDFKGRFAFSLDTSASTAYLQINNLKNEDTATYFCVREPIYYGWVDYWGQGTSVTVSS
VL: DIVMTQAAPSVPVTPGESASISCRSSKSLLHRNGNTYLYWFLQRPGQSPQVLIYRMSNLASGVPDRFSGSGSGTAFTLRISRVEAEDVGVYYCMQHLEYPYTFGGGTKLEIK
As to B5, the binding result is listed as “binds”.

B6: 07PC28 (antibody, V domains shown)
VH: QIQLVQSGPELKKPGETVKISCKTSGYTFTDFGMNWVKRAPGQDLKWMGWINTYTGATTYGDEFKGRFAFSLETSASTASLQINNLKNEDSATYFCVREPLYYGWVDYWGQGTSVIVSS
VL: DIVMTQVAPSVPVTPGESVSISCRSSKSLLHRNGNTYLYWFLQRPGQSPQVLIYRMSNLASGVPDRFSGSGSGTAFTLRISRVEAEDVGVYYCMQHLEYPYTFGGGTKLEIK
B6: the binding result is “binds”.

B7: 07PC27 (antibody, V domains shown)
VH: QLQLVQSGPELKKPGETVKISCKASGYAFTNYGMNWVKQTPGKGLKWMGWINTYSGETTYGDDFKGRFAFSLETSASTAYLQINSLKNEDTATYFCVREPIYYGWVDYWGQGTSVTVSS
VL: DIVMTQAAPSVPVTPGESVSISCRSSKSLLHRNGNTYLYWFLQRPGQSPQVLIYRMSNLASGVPDRFSGSGSGTAFTLRISRVEAEDVGVYYCMQHLEYPYTFGGGTKLEIK
B7: the binding result is “binds”.

B8: 07PC03 (antibody, V domains shown)
VH: QLQLVQSGPEVKKPGETVKISCKASGYAFTNYGMNWVKQAPGKDLKWMGWIKTYTGDSVYGDDFKGRFAFSLDTSASTAYLQINDLKNEDTATYFCVREPIYYGWVDYWGQGTSVTVSS
VL: DIVMTQAAPSVPVTPGESASISCRSSKSLLHRNGNTYLYWFLQRPGQSPQVLIYRMSNLASGVPDRFSGSGSGTAFTLRISRVEAEDVGVYYCMQHLEYPYTFGGGTKLEIK
For the molecule B8, the binding result is given as “binds”.

B9: 07TE04 (antibody, V domains shown)
VH: QVQLQQSGAELVKPGASVKLSCKASGYTFTRYYLYWVKQRPGQGLEWIGKINPTNGVADLNEKFKYKATLTVDKSSSTTHMQLSSLTSEDSAVYYCTRVYYKYDGFAYWGQGTLVTVSA
VL: DIVMTQSLKFMSTSVGDRVSIICKASQDVGTAVAWYQQKPAQSPKLLIYWASTRHTGVPDRFTGSGSGTDFTLTISNVQSEDLTDYFCQQYSSYPLTFGGGTKLEIK
Turning to B9, the binding result is “binds”.
